Measured values published in patent publication CN114702585A (SHENZHEN BINDEBIO TECH CO LTD, dated 2022).

Target: T1, CD22蛋白 (购自义翘神州) (UniProt P20273 20-687)
T1 construct: Bought recombinant protein; also called CD22蛋白抗原
T1 sequence (looked up): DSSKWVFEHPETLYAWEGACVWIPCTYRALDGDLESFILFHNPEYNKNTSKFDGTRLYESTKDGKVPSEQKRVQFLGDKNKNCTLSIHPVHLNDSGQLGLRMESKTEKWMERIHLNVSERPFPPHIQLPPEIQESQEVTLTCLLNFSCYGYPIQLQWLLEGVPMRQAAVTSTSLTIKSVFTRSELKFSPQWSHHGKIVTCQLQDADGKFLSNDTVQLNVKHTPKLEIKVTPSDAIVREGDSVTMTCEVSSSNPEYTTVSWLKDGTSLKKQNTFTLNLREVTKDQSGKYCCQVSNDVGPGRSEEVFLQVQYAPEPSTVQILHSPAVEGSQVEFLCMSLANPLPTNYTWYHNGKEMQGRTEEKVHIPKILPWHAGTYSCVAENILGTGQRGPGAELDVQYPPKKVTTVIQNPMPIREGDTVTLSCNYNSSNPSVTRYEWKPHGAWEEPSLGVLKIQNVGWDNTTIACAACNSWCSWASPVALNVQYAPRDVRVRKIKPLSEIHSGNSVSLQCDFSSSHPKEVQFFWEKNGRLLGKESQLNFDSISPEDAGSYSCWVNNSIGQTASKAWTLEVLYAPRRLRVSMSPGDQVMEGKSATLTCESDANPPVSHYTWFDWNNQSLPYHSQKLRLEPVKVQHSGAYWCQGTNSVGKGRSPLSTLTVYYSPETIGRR
Assay: BLI (OCTET K2), CD22 protein loaded on AHC sensor, 4F6 in solution 500-5.21 nM

Kd: 3.14 nM
B1: 抗CD22的单克隆抗体4F6 (antibody, V domains shown)
VH: EVLLQQSGPELVKPGASVKIPCKASGYTFTDYNMDWVKQSHGKSLEWIGDIDPNNGITIYNQKFKGKATLTIDKSSSTAYMELRSLTSEDTAVYYCARDRYDRGYALDYWGQGTSVTVSS
VL: DIVMTQSPSSLAMSVGQKVTMSCKSSQSLLNSSNQKNYLAWHQQKTGQSPKLLVYFASIRDSGVPDRFIGSGSGTDFTLTINSVQAEDLADYFCQQHYSTPFTFGSGTKLEIK
notes: also called 4F6抗体; CD22单克隆抗体
